Results from the supplement of paper PMC5998384.

Columns and labels:
HeLa Kyoto [1] = assay: thermal stability score vs G1/S (z-score of summed log2 fold changes over temperatures); higher = more thermally stable than in G1/S
HeLa Kyoto [2] = assay: solubility change mitosis vs G1/S (difference of NP-40 vs SDS log2 ratios) (log2 ratio difference); higher = more soluble in mitosis
HeLa Kyoto [3] = assay: melting temperature (median over replicates), in situ; higher = more thermally stable
HeLa Kyoto [4] = assay: solubility in G1/S (NP-40 vs SDS abundance) (log2 ratio); higher = more soluble; conditions: cell cycle stage: G1/S
[5] = cell cycle stage: early G1 (4.5 h after nocodazole release)
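Throughout, for melting temperature (median over replicates), in situ: HeLa Kyoto cells synchronized by double thymidine or nocodazole block, proteins quantified by TMT10plex mass spectrometry, three independent biological replicates.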
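Throughout, for solubility change mitosis vs G1/S (difference of NP-40 vs SDS log2 ratios): synchronized HeLa Kyoto cells (double thymidine block for G1/S, nocodazole release for mitosis), protein amounts in NP-40 versus SDS lysates quantified by mass spectrometry, three biological replicates.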
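Throughout, for solubility in G1/S (NP-40 vs SDS abundance): HeLa Kyoto cells arrested at G1/S by double thymidine block, proteins quantified by TMT10plex mass spectrometry in mild NP-40 versus SDS extracts, three biological replicates.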
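Throughout, for thermal stability score vs G1/S (z-score of summed log2 fold changes over temperatures): synchronized HeLa Kyoto cells, proteins quantified by TMT10plex mass spectrometry, three biological replicates, mitosis taken 0.5 h after nocodazole release, G1/S directly after double thymidine block.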

Sequence	thermal stability score (HeLa Kyoto [1]; [5])	thermal stability score (HeLa Kyoto [1]; cell cycle stage: mitosis)	solubility change mitosis (log2) (HeLa Kyoto [2])	melting temperature (HeLa Kyoto [3]; cell cycle stage: G1/S)	melting temperature (HeLa Kyoto [3]; cell cycle stage: mitosis)	solubility in G1/S (log2) (HeLa Kyoto [4])
MPPSGPRGTLLLLPLLLLLLLRAVLAVPLERGAPNKEETPATESPDTGLYYHRYLQEVIDVLETDGHFREKLQAANAEDIKSGKLSRELDFVSHHVRTKLDELKRQEVSRLRMLLKAKMDAEQDPNVQVDHLNLLKQFEHLDPQNQHTFEARDLELLIQTATRDLAQYDAAHHEEFKRYEMLKEHERRRYLESLGEEQRKEAERKLEEQQRRHREHPKVNVPGSQAQLKEVWEELDGLDPNRFNPKTFFILHDINSDGVLDEQELEALFTKELEKVYDPKNEEDDMREMEEERLRMREHVMKNVDTNQDRLVTLEEFLASTQRKEFGDTGEGWETVEMHPAYTEEELRRFEEELAAREAELNAKAQRLSQETEALGRSQGRLEAQKRELQQAVLHMEQRKQQQQQQQGHKAPAAHPEGQLKFHPDTDDVPVPAPAGDQKEVDTSEKKLLERLPEVEVPQHL [NUCB1]	-3.73	-4.26	0.0913	54.5 °C	54.7 °C	0.717
MPRIMIKGGVWRNTEDEILKAAVMKYGKNQWSRIASLLHRKSAKQCKARWYEWLDPSIKKTEWSREEEEKLLHLAKLMPTQWRTIAPIIGRTAAQCLEHYEFLLDKAAQRDNEEETTDDPRKLKPGEIDPNPETKPARPDPIDMDEDELEMLSEARARLANTQGKKAKRKAREKQLEEARRLAALQKRRELRAAGIEIQKKRKRKRGVDYNAEIPFEKKPALGFYDTSEENYQALDADFRKLRQQDLDGELRSEKEGRDRKKDKQHLKRKKESDLPSAILQTSGVSEFTKKRSKLVLPAPQISDAELQEVVKVGQASEIARQTAEESGITNSASSTLLSEYNVTNNSVALRTPRTPASQDRILQEAQNLMALTNVDTPLKGGLNTPLHESDFSGVTPQRQVVQTPNTVLSTPFRTPSNGAEGLTPRSGTTPKPVINSTPGRTPLRDKLNINPEDGMADYSDPSYVKQMERESREHLRLGLLGLPAPKNDFEIVLPENAEKELEEREIDDTYIEDAADVDARKQAIRDAERVKEMKRMHKAVQKDLPRPSEVNETILRPLNVEPPLTDLQKSEELIKKEMITMLHYDLLHHPYEPSGNKKGKTVGFGTNNSEHITYLEHNPYEKFSKEELKKAQDVLVQEMEVVKQGMSHGELSSEAYNQVWEECYSQVLYLPGQSRYTRANLASKKDRIESLEKRLEINRGHMTTEAKRAAKMEKKMKILLGGYQSRAMGLMKQLNDLWDQIEQAHLELRTFEELKKHEDSAIPRRLECLKEDVQRQQEREKELQHRYADLLLEKETLKSKF [CDC5L]	3.11	6.1	0.483	47.5 °C	48.7 °C	-0.778
MPRKRKCDLRAVRVGLLLGGGGVYGSRFRFTFPGCRALSPWRVRVQRRRCEMSTMFADTLLIVFISVCTALLAEGITWVLVYRTDKYKRLKAEVEKQSKKLEKKKETITESAGRQQKKKIERQEEKLKNNNRDLSMVRMKSMFAIGFCFTALMGMFNSIFDGRVVAKLPFTPLSYIQGLSHRNLLGDDTTDCSFIFLYILCTMSIRQNIQKILGLAPSRAATKQAGGFLGPPPPSGKFS [TMCO1]	-0.0145	-0.0344	0.0683	53.7 °C	54.1 °C	-0.0501
MPSASCDTLLDDIEDIVSQEDSKPQDRHFVRKDVVPKVRRRNTQKYLQEEENSPPSDSTIPGIQKIWIRTWGCSHNNSDGEYMAGQLAAYGYKITENASDADLWLLNSCTVKNPAEDHFRNSIKKAQEENKKIVLAGCVPQAQPRQDYLKGLSIIGVQQIDRVVEVVEETIKGHSVRLLGQKKDNGRRLGGARLDLPKIRKNPLIEIISINTGCLNACTYCKTKHARGNLASYPIDELVDRAKQSFQEGVCEIWLTSEDTGAYGRDIGTNLPTLLWKLVEVIPEGAMLRLGMTNPPYILEHLEEMAKILNHPRVYAFLHIPVQSASDSVLMEMKREYCVADFKRVVDFLKEKVPGITIATDIICGFPGETDQDFQETVKLVEEYKFPSLFINQFYPRPGTPAAKMEQVPAQVKKQRTKDLSRVFHSYSPYDHKIGERQQVLVTEESFDSKFYVAHNQFYEQVLVPKNPAFMGKMVEVDIYESGKHFMKGQPVSDAKVYTPSISKPLAKGEVSGLTKDFRNGLGNQLSSGSHTSAASQCDSASSRMVLPMPRLHQDCALRMSVGLALLGLLFAFFVKVYN [CDKAL1]	-2.9	-1	-0.00551	51.2 °C	50.7 °C	0.0175
MPSDLAKKKAAKKKEAAKARQRPRKGHEENGDVVTEPQVAEKNEANGRETTEVDLLTKELEDFEMKKAAARAVTGVLASHPNSTDVHIINLSLTFHGQELLSDTKLELNSGRRYGLIGLNGIGKSMLLSAIGKREVPIPEHIDIYHLTREMPPSDKTPLHCVMEVDTERAMLEKEAERLAHEDAECEKLMELYERLEELDADKAEMRASRILHGLGFTPAMQRKKLKDFSGGWRMRVALARALFIRPFMLLLDEPTNHLDLDACVWLEEELKTFKRILVLVSHSQDFLNGVCTNIIHMHNKKLKYYTGNYDQYVKTRLELEENQMKRFHWEQDQIAHMKNYIARFGHGSAKLARQAQSKEKTLQKMMASGLTERVVSDKTLSFYFPPCGKIPPPVIMVQNVSFKYTKDGPCIYNNLEFGIDLDTRVALVGPNGAGKSTLLKLLTGELLPTDGMIRKHSHVKIGRYHQHLQEQLDLDLSPLEYMMKCYPEIKEKEEMRKIIGRYGLTGKQQVSPIRNLSDGQKCRVCLAWLAWQNPHMLFLDEPTNHLDIETIDALADAINEFEGGMMLVSHDFRLIQQVAQEIWVCEKQTITKWPGDILAYKEHLKSKLVDEEPQLTKRTHNV [ABCF2]	1.11	0.19	0.116	51.8 °C	51.2 °C	-0.296
MPSLLVLTFSPCVLLGWALLAGGTGGGGVGGGGGGAGIGGGRQEREALPPQKIEVLVLLPQDDSYLFSLTRVRPAIEYALRSVEGNGTGRRLLPPGTRFQVAYEDSDCGNRALFSLVDRVAAARGAKPDLILGPVCEYAAAPVARLASHWDLPMLSAGALAAGFQHKDSEYSHLTRVAPAYAKMGEMMLALFRHHHWSRAALVYSDDKLERNCYFTLEGVHEVFQEEGLHTSIYSFDETKDLDLEDIVRNIQASERVVIMCASSDTIRSIMLVAHRHGMTSGDYAFFNIELFNSSSYGDGSWKRGDKHDFEAKQAYSSLQTVTLLRTVKPEFEKFSMEVKSSVEKQGLNMEDYVNMFVEGFHDAILLYVLALHEVLRAGYSKKDGGKIIQQTWNRTFEGIAGQVSIDANGDRYGDFSVIAMTDVEAGTQEVIGDYFGKEGRFEMRPNVKYPWGPLKLRIDENRIVEHTNSSPCKSSGGLEESAVTGIVVGALLGAGLLMAFYFFRKKYRITIERRTQQEESNLGKHRELREDSIRSHFSVA [NPR3]	-4.69	-4.35	-0.0686	53.9 °C	54.4 °C	0.0598
MPSRKFADGEVVRGRWPGSSLYYEVEILSHDSTSQLYTVKYKDGTELELKENDIKPLTSFRQRKGGSTSSSPSRRRGSRSRSRSRSPGRPPKSARRSASASHQADIKEARREVEVKLTPLILKPFGNSISRYNGEPEHIERNDAPHKNTQEKFSLSQESSYIATQYSLRPRREEVKLKEIDSKEEKYVAKELAVRTFEVTPIRAKDLEFGGVPGVFLIMFGLPVFLFLLLLMCKQKDPSLLNFPPPLPALYELWETRVFGVYLLWFLIQVLFYLLPIGKVVEGTPLIDGRRLKYRLNGFYAFILTSAVIGTSLFQGVEFHYVYSHFLQFALAATVFCVVLSVYLYMRSLKAPRNDLSPASSGNAVYDFFIGRELNPRIGTFDLKYFCELRPGLIGWVVINLVMLLAEMKIQDRAVPSLAMILVNSFQLLYVVDALWNEEALLTTMDIIHDGFGFMLAFGDLVWVPFIYSFQAFYLVSHPNEVSWPMASLIIVLKLCGYVIFRGANSQKNAFRKNPSDPKLAHLKTIHTSTGKNLLVSGWWGFVRHPNYLGDLIMALAWSLPCGFNHILPYFYIIYFTMLLVHREARDEYHCKKKYGVAWEKYCQRVPYRIFPYIY [LBR]	-0.47	-1.19	-0.0634	53.1 °C	52.5 °C	-0.228
MPTVEELYRNYGILADATEQVGQHKDAYQVILDGVKGGTKEKRLAAQFIPKFFKHFPELADSAINAQLDLCEDEDVSIRRQAIKELPQFATGENLPRVADILTQLLQTDDSAEFNLVNNALLSIFKMDAKGTLGGLFSQILQGEDIVRERAIKFLSTKLKTLPDEVLTKEVEELILTESKKVLEDVTGEEFVLFMKILSGLKSLQTVSGRQQLVELVAEQADLEQTFNPSDPDCVDRLLQCTRQAVPLFSKNVHSTRFVTYFCEQVLPNLGTLTTPVEGLDIQLEVLKLLAEMSSFCGDMEKLETNLRKLFDKLLEYMPLPPEEAENGENAGNEEPKLQFSYVECLLYSFHQLGRKLPDFLTAKLNAEKLKDFKIRLQYFARGLQVYIRQLRLALQGKTGEALKTEENKIKVVALKITNNINVLIKDLFHIPPSYKSTVTLSWKPVQKVEIGQKRASEDTTSGSPPKKSSAGPKRDARQIYNPPSGKYSSNLGNFNYEQRGAFRGSRGGRGWGTRGNRSRGRLY [API5]	1.42	1.11	0.0442	53.7 °C	52.8 °C	0.323
MPVGGLLPLFSSPAGGVLGGGLGGGGGRKGSGPAALRLTEKFVLLLVFSAFITLCFGAIFFLPDSSKLLSGVLFHSSPALQPAADHKPGPGARAEDAAEGRARRREEGAPGDPEAALEDNLARIRENHERALREAKETLQKLPEEIQRDILLEKKKVAQDQLRDKAPFRGLPPVDFVPPIGVESREPADAAIREKRAKIKEMMKHAWNNYKGYAWGLNELKPISKGGHSSSLFGNIKGATIVDALDTLFIMEMKHEFEEAKSWVEENLDFNVNAEISVFEVNIRFVGGLLSAYYLSGEEIFRKKAVELGVKLLPAFHTPSGIPWALLNMKSGIGRNWPWASGGSSILAEFGTLHLEFMHLSHLSGNPIFAEKVMNIRTVLNKLEKPQGLYPNYLNPSSGQWGQHHVSVGGLGDSFYEYLLKAWLMSDKTDLEAKKMYFDAVQAIETHLIRKSSSGLTYIAEWKGGLLEHKMGHLTCFAGGMFALGADAAPEGMAQHYLELGAEIARTCHESYNRTFMKLGPEAFRFDGGVEAIATRQNEKYYILRPEVMETYMYMWRLTHDPKYRKWAWEAVEALENHCRVNGGYSGLRDVYLLHESYDDVQQSFFLAETLKYLYLIFSDDDLLPLEHWIFNSEAHLLPILPKDKKEVEIREE [MAN1A1]	1.56	0.0924	-0.0318	55 °C	54.7 °C	0.133
